According to IntAct's records for PubMed 23665169:

Target: stk25_human STK25 (UniProt O00506)
Sequence (O00506 whole entry, looked up): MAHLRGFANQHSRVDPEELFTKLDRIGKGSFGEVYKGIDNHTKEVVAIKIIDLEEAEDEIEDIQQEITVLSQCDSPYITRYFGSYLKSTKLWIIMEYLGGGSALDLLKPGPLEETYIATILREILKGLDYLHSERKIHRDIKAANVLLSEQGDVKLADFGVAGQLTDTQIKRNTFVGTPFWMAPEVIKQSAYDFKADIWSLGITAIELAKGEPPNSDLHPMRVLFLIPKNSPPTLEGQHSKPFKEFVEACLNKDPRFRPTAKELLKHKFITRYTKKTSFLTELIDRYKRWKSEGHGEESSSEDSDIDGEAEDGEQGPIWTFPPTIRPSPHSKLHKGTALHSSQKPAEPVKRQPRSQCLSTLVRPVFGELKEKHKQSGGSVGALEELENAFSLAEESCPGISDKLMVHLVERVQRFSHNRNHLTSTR

Chain of Programmed cell death protein 10 (Homo sapiens), Q9BUL8 F76D;L80D;M83D (Q9BUL8 whole entry F76D/L80D/M83D): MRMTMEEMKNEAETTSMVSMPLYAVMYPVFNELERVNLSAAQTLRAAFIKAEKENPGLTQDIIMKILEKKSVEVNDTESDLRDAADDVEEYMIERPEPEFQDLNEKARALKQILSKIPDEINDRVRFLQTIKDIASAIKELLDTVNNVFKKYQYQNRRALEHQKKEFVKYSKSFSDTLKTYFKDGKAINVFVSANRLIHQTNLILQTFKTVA

Substance: Programmed cell death protein 10 (Homo sapiens), Q9BUL8 F76D;L80D;M83D
- effect of a mutation on the interaction: decreasing interaction strength
